Measured values taken from paper PMC11661142 (bioRxiv, 2024).

Experiments:
[1] = target: T1, ScPex1^WT (Pex1-FLAG), S. cerevisiae (S. cerevisiae, UniProt P24004 1-1043); experiment: SEC
T1 sequence: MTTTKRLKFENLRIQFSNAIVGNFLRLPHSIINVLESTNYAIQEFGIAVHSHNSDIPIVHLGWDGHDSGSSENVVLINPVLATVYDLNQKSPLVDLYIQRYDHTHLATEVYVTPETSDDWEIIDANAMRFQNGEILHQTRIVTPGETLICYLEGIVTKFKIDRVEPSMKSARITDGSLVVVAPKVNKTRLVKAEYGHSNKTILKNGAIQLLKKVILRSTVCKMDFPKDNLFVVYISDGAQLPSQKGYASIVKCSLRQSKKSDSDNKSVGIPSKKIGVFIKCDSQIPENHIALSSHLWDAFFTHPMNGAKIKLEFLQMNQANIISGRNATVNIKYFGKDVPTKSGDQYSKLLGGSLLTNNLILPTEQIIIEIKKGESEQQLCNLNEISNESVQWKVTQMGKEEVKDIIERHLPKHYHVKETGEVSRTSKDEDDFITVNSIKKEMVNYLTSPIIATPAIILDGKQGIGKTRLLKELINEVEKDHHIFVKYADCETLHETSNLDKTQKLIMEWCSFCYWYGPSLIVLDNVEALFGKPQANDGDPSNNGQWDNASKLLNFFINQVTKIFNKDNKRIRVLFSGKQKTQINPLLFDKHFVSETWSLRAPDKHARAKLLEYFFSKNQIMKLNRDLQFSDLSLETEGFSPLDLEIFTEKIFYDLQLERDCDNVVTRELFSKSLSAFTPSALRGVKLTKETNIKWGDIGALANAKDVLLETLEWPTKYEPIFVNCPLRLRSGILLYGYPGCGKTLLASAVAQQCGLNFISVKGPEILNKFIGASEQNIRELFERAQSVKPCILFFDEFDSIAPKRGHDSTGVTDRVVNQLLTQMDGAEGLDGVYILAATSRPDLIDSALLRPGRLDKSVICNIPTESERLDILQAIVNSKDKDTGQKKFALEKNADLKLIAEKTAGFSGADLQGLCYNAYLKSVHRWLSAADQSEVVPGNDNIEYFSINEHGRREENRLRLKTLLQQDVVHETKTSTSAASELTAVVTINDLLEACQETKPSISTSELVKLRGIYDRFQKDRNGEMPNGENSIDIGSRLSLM

[2] = target: T2, ScPex1^G700D (Pex1-FLAG G700D), S. cerevisiae (S. cerevisiae, UniProt P24004 1-1043, G700D); experiment: SEC
T2 sequence: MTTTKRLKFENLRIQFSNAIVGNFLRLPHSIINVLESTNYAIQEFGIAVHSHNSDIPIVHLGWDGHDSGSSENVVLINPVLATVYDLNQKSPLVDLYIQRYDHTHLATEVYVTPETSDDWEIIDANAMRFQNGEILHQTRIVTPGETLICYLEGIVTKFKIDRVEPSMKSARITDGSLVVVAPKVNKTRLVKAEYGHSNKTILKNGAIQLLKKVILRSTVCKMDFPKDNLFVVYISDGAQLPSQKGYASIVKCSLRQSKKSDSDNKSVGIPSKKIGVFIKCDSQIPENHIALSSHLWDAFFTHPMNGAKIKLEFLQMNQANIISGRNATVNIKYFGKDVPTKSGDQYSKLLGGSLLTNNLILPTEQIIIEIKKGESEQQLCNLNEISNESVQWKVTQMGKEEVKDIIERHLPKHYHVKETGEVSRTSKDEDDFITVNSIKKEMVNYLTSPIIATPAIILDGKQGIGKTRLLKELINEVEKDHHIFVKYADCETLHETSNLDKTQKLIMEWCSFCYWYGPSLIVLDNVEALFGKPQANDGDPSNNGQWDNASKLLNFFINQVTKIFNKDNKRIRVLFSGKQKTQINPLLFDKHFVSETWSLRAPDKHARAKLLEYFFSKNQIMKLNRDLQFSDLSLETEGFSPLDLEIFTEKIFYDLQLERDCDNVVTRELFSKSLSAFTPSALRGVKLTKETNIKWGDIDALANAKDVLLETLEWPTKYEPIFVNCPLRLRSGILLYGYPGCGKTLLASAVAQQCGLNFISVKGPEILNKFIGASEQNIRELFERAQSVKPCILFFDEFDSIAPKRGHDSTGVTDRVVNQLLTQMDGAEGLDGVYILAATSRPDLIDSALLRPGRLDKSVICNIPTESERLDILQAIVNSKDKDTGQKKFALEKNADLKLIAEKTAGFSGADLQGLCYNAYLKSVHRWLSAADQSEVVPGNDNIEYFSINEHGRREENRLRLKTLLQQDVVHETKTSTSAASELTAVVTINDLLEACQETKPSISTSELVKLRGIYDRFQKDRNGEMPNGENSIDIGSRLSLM

B1: ScPex6 (His-Pex6), S. cerevisiae (natural protein)
chain: MKASLTFSLSGIYAPCSISRDIYLEYGDKKAECLYGTIRLPQYGPGCTPGKIVHCVLDDSLPFCSIVVPSKLFGFMPTQPTMDFCYFEPILDNVVPVLDSVTFLINEQLYSKLMDLPQEMQQIQFLHYKYNINSMETVVHSRDILTSGLCQILNCSPFPQGLVDFTETQLILVNDTEQKLSALKYANEDEEYALPKIGTNSALSIDLESLPCTISRDLLRPAPHINDDNSIYAFTDAETLLRLDVTSGSFITVSNMGCVRLVKLFVLLLPNGFKKRTIYAPPKIIASFPDCSVVTISKSNIGHTDIPIANQVFISRVGGWLQSQKCFQNIILTTLKKFFSESKRILCQNDLIPIAFDSSMADLNIAEENDESDDEDELGQYYKNDSLVWFFVTSAELDCFSKDNSHFIIDPNRTKLITTNITNRRPLPLSRSNLQRYYGFAETFYYDLHIFPYVRQLVNILETSFNCSQRGITLNASVLLHSTTNNVGKATMVRFASKYLGIHLLEIDCLSLTSNSRQLDSTSKIIGYIRAKCENVLPYASPAVIFLAHLDSILLDVNANQDPEAIKLQKSINFEMSKLLDDFTFKFPGTTFVGSVNNIDNVPSSFRSHMRFEILVPVPSEAQRLRIFQWYLSSHELNRDVQQKVPVSYMDNISFSSLSSYSAGLTPLDIKSIVETARMTATARFYQESKKCGWLPQSILITQEDLSKATSKARNEFSVSIGAPQIPNVTWDDIGGIDFVKGEILDTIDMPLKHPELFTSGMKKRSGILFYGPPGTGKTLMAKAIATNFSLNFFSVKGPELLNMYIGESEANVRRVFQKAREAKPCVIFFDEIDSVAPKRGNQGDSGGVMDRIVSQLLAELDGMSTDADGVFVIGATNRPDLLDEALLRPGRFDKLLYLGIPDTDTKQLNILEALTRKFVLDNDVKLIELAKLCPFNYTGADFYALCSDAMLNAMSRIARMVEKKVSQHNELTGENISTRRWFDKIATKEDTKVVVKMEDFLKAQEQLTPSVSRAELNHYEAVRANFEGA
binding result [1]: binds | binding result [2]: binds
